Source: patent publication US9243044B2, “Anticoagulant polypeptide and applications thereof” (GUANGDONG MEDICAL COLLEGE, priority 2011, dated 2016)

T1: human fXIIa (Homo sapiens, UniProt P00748)
T1 construct: Human coagulation factors IIa (thrombin), Xa, XIa, XIIa, EGR-fXa; purchased Haematologic Technologies Inc (United States)
T1 sequence (P00748 373-615 limits assumed): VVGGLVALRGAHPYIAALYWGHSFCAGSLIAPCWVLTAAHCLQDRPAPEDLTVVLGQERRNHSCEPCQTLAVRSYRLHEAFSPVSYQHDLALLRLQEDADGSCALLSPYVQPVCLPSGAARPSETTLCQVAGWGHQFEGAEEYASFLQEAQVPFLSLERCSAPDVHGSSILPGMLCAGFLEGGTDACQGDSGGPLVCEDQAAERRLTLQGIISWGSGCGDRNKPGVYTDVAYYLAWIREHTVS
T1 sequence (P00748 20-372 limits assumed): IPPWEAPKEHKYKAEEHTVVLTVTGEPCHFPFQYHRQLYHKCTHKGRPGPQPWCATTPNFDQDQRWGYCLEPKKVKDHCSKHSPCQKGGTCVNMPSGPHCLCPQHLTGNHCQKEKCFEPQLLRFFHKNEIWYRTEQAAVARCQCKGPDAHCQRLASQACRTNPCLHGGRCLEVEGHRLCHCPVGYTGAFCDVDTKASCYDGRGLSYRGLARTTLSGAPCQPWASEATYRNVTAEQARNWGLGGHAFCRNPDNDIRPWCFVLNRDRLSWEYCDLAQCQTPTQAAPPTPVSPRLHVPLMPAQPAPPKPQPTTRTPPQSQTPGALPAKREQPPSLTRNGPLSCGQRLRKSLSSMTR


Legend:
Assay type in all cases: biochemical
human fXa = molecular target: T2, human fXa (Homo sapiens, UniProt P00742); experiment: Chromogenic assay, fXa
T2 construct: Human coagulation factors IIa (thrombin), Xa, XIa, XIIa, EGR-fXa; purchased Haematologic Technologies Inc (United States)
T2 sequence (P00742 41-179 limits assumed): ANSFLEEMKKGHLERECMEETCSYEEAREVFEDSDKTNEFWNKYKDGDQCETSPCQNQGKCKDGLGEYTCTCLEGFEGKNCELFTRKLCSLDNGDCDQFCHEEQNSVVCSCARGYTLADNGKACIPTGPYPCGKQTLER
T2 sequence (P00742 235-488 limits assumed): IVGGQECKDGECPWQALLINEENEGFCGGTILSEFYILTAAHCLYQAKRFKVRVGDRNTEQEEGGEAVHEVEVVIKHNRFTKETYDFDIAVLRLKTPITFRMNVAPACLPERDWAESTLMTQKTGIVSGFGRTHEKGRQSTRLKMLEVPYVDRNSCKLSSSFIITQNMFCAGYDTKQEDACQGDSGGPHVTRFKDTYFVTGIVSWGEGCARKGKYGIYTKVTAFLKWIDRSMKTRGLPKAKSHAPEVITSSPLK
Source text: (§1) The recombinant anticoagulant polypeptides in the present invention were expressed in E. coli and purified in our laboratory, of which the activities against coagulation factors were investigated by chromogenic assays. Human coagulation factors IIa (thrombin), Xa, XIa, XIIa, EGR-fXa were products of Haematologic Technologies Inc (United States). Recombinant fVIIa was products of Novo-Nordisk (Denmark). Recombinant soluble tissue factor (sTF) was purchased from Protgen (Beijing, China). The following chromogenic substrates were used for these coagulation factor assays: S2765 for human fXa, S2288 for human fVIIa and fIIa, 52366 for human fXIa and fXIIa, respectively.
(§2) The chromogenic assays were carried out in a total reaction volume of 100 μl in individual wells of a 96-well microtiter plate. 50 μl fIIa, fXa, fXIa, or fXIIa (final concentration: 1 nM) was incubated with 10 μl recombinant anticoagulant polypeptide at various concentrations (or PBS control group) Assays for the detection activity of fVIIa: 50 μl fVIIa+TF (1 μM) and EGR-fXa (final concentration 500 nM) was incubated for 15 mins at 25° C., respectively. After the addition of 40 μl of prewarmed chromogenic substrate to a final concentration of 400 μM, the changes of absorbance at 405 nm were monitored by using an E1x808 kinetic microtiter reader. The data were used to calculate the velocities of response.

human fXIa = molecular target: T3, human fXIa (Homo sapiens, UniProt P03951); experiment: Chromogenic assay, fXIa; settings: for inhibition of the activity of fXIa: 100 nM; for inhibition of the activity of fXIa (in words): 200 nM
T3 construct: Human coagulation factors IIa (thrombin), Xa, XIa, XIIa, EGR-fXa; purchased Haematologic Technologies Inc (United States)
T3 sequence (P03951 19-387 limits assumed): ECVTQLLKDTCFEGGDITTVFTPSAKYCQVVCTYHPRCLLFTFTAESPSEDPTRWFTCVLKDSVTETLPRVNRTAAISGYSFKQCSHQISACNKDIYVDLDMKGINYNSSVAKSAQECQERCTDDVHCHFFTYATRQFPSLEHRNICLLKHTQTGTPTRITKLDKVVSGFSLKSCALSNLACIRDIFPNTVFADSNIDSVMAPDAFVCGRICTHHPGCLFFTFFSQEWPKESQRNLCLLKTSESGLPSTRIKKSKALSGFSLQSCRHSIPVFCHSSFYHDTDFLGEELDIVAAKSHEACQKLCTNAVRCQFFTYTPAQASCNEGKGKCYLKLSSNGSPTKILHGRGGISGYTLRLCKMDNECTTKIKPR
T3 sequence (P03951 388-625 limits assumed): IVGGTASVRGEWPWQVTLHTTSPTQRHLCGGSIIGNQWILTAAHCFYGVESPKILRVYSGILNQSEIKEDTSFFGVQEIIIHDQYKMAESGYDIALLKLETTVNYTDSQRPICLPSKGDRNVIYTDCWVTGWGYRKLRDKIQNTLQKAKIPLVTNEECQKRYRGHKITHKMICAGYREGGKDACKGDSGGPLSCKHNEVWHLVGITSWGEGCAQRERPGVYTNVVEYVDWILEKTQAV
Source text: as §1, §2

normal human plasma [1] = experiment: aPTT assay in normal human plasma; settings: for prolongation of aPTT (in words): 100 nM and 500 nM; for aPTT: normal human plasma; for multiples of prolonging aPTT: ratio of mean aPTT to blank control
Protocol: (§3) The recombinant anticoagulant polypeptides were expressed in Escherichia coli and purified in our laboratory. Anticoagulant activity was determined by measuring the aPTT and PT.
For the aPTT assay, 10 μl recombinant protein at various concentrations was mixed with 50 μl fresh normal human plasma, 20 μl aPTT reagent (MDC Hemostasis, Germany) and incubated for 15 mins at 37° C. 20 μl 0.05 mol/L prewarmed CaCl2 was then added to initiate the clotting reaction. The clotting time was measured with the absorbance at 630 nm by using an E1x808 kinetic microtiter reader (BioTek, United States). Each concentration was repeated 3 times. The ratio of the mean aPTT value of each concentration to blank control group is multiples of prolonging the aPTT.

human fXIIa = molecular target: T1, human fXIIa; experiment: Chromogenic assay, fXIIa
Source text: as §1, §2

normal human plasma [2] = experiment: PT assay in normal human plasma; settings: for PT: normal human plasma
Protocol: as §3
For the PT assay, 10 μl recombinant protein at various concentration was mixed with 45 μl normal human plasma and incubated for 15 mins at 37° C. 45 μl prewarmed PT reagent (MDC Hemostasis, Germany) was then added and the clotting time was measured with the absorbance at 630 nm by using an E1x808 kinetic microtiter reader (BioTek, United States). Each concentration was repeated 3 times.

fVIIa/TF = molecular target: T4, fVIIa/TF (Homo sapiens, UniProt P08709); experiment: Chromogenic assay, fVIIa/TF
T4 construct: Recombinant fVIIa was products of Novo-Nordisk (Denmark); purchased Novo-Nordisk (Denmark) for fVIIa; Protgen (Beijing, China) for sTF; Haematologic Technologies Inc for EGR-fXa
T4 sequence (P08709 61-212 limits assumed): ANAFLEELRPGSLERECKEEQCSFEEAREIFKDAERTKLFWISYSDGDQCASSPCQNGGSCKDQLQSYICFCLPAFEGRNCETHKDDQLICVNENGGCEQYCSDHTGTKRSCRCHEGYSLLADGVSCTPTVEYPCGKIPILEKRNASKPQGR
T4 sequence (P08709 213-466 limits assumed): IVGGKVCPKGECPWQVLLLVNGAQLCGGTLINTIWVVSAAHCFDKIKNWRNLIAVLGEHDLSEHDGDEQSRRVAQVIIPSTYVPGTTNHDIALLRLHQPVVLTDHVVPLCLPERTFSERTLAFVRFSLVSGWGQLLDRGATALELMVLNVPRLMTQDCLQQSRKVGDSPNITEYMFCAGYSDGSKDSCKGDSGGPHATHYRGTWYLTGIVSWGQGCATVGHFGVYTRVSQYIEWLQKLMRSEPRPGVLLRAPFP
T4 sequence (P13726 33-251 partner limits assumed): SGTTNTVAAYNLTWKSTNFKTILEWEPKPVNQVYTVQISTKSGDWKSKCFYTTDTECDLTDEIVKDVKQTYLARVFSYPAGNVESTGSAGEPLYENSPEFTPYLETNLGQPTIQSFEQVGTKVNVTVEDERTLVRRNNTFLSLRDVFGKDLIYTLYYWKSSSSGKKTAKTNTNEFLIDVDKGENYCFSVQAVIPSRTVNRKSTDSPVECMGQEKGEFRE
Source text: as §1, §2

human fIIa (thrombin) = molecular target: T5, human fIIa (thrombin) (Homo sapiens, UniProt P00734); experiment: Chromogenic assay, fIIa (thrombin)
T5 construct: Human coagulation factors IIa (thrombin), Xa, XIa, XIIa, EGR-fXa; purchased Haematologic Technologies Inc (United States)
Source text: as §1, §2

| Molecule | effect on fXa activity (in words) (human fXa; 100 nM) | inhibition of the activity of fXIa (human fXIa) | prolongation of aPTT (in words) (normal human plasma [1]) | aPTT (normal human plasma [1]; 100 nM) [s] | multiples of prolonging aPTT (normal human plasma [1]; 100 nM) | aPTT (normal human plasma [1]; 500 nM) [s] | multiples of prolonging aPTT (normal human plasma [1]; 500 nM) | effect on fXIIa activity (in words) (human fXIIa; 100 nM) | prolongation of PT (in words) (normal human plasma [2]; 100 nM) | PT (normal human plasma [2]; 100 nM) [s] | prolongation of PT (normal human plasma [2]; 500 nM) | PT (normal human plasma [2]; 500 nM) [s] | effect on fVIIa/TF activity (in words) (fVIIa/TF; 100 nM) | effect on fIIa activity (in words) (human fIIa (thrombin); 100 nM) | effect on fXa activity (in words) (human fXa; 200 nM) | inhibition of the activity of fXIa (in words) (human fXIa) | effect on fXIIa activity (in words) (human fXIIa; 200 nM) | prolongation of PT (in words) (normal human plasma [2]; 100 nM and 500 nM) | effect on fVIIa/TF activity (in words) (fVIIa/TF; 200 nM) | effect on fIIa activity (in words) (human fIIa (thrombin); 200 nM) | also measured |
| --- | --- | --- | --- | --- | --- | --- | --- | --- | --- | --- | --- | --- | --- | --- | --- | --- | --- | --- | --- | --- | --- |
| NAPTin-9 (protein, Sequence derived from Ancylostoma caninum or Synthetic) NPSCGENERHDECSRKECDPKCKYDGTEEKDDEKPVVCLTRVCYGDCICRDGFLRNKNGACVKAEDCELDNMEFI | without affecting | more than 90% | significantly prolong aPTT | 80.8 ± 3.2 | 2.01 | 235.3 ± 5.4 | 5.87 | without affecting | almost couldn't prolong PT | 13.0 ± 0.7 | less than 1.6 times | 19.6 ± 0.9 | without affecting | without affecting | – | – | – | – | – | – | inhibition of the activity of fVIIa/TF (fVIIa/TF; 200 nM): about 15% |
| NAPTin-2 (protein, Sequence derived from Ancylostoma caninum or Synthetic) NPSCGENERHDECSRKECDPKCKYDGTEEKDDEKPVVCLTRVCYGDCICRDGFLRNKNGACVKAEDCELDN | without affecting | more than 90% | significantly prolong aPTT | 80.2 ± 5.1 | 2.0 | 221.8 ± 6.3 | 5.53 | without affecting | – | 11.7 ± 1.1 | – | 12.6 ± 0.5 | without affecting | without affecting | without affecting | almost completely inhibited | without affecting | couldn't prolong PT | without affecting | without affecting | – |
| NAPTin-6 (protein, Sequence derived from Ancylostoma caninum or Synthetic) NPSCGENERHDECSRKECDPKCKYDGTEEKDDEKPVVCLTRVCYGDCICRDGFLRNKNGACVKAEDCE | without affecting | more than 90% | significantly prolong aPTT | 79.5 ± 3.1 | 1.98 | 215.4 ± 5.6 | 5.37 | without affecting | – | 12.4 ± 0.9 | – | 12.6 ± 0.4 | without affecting | without affecting | without affecting | almost completely inhibited | without affecting | couldn't prolong PT | without affecting | without affecting | – |
| NAPTin-4 (protein, Sequence derived from Ancylostoma caninum or Synthetic) NPSCGENERHDECSRKECDPKCKYDGTEEKDDEKPVVCLTRVCYGDCICRDGFLRNKNGACVKAEDCELDNME | without affecting | more than 90% | significantly prolong aPTT | 78.7 ± 3.7 | 1.96 | 233.3 ± 4.5 | 5.82 | without affecting | – | 12.4 ± 0.9 | – | 11.6 ± 0.3 | without affecting | without affecting | without affecting | almost completely inhibited | without affecting | couldn't prolong PT | without affecting | without affecting | – |
| NAPTin-8 (protein, Sequence derived from Ancylostoma caninum or Synthetic) NPSCGENERHDECSRKECDPKCKYDGTEEKDDEKPVVCLTRVCYGDCICRDGFLRNKNGACVKAEDCELDNMEF | without affecting | more than 90% | significantly prolong aPTT | 79.7 ± 2.9 | 1.99 | 238.6 ± 8.1 | 5.95 | without affecting | almost couldn't prolong PT | 12.8 ± 0.7 | less than 1.6 times | 17.6 ± 0.6 | without affecting | without affecting | – | – | – | – | – | – | inhibition of the activity of fVIIa/TF (fVIIa/TF; 200 nM): about 15% |
